From patent US20230192896A1 (BIOVERATIV THERAPEUTICS, published 2023)

Experiments:
FIXa-SM (FIXa+EGR-CMK) = target: T1, FIXa-SM (FIXa+EGR-CMK) (human, UniProt P00740 47-191; P00740 227-461, EGR-CMK (L-Glu-Gly-Arg chloromethyl ketone) covalently bound to the active site); experiment: BLI; class meaning: paragraph 914
T1 construct: BLI antigen bought from Haematologic Technologies (HCIXA-EGR); also called FIXa with substrate mimic

[1] = target: T2, free FIXa (activated Factor IX) (human, UniProt P00740 47-191; P00740 227-461); experiment: BLI; class meaning: paragraph 914
T2 construct: BLI antigen bought from Haematologic Technologies (HCIXA-0050); also called factor IXa

Binder	binding result (FIXa-SM (FIXa+EGR-CMK))	binding result [1]
BIIB-9-1265 (antibody, V domains shown, IgG) VH: QLQLQESGPGLVKPSETLSLTCTVSGGSISSSSYYWGWIRQPPGKGLEWIGSIYYSGSTYYNPSLKSRVTISVDTSKNQFSLKLSSVTAADTAVYYCARDGRHYYELFDYWGQGTLVTVSS VL: DIQMTQSPSSVSASVGDRVTITCRASQGISSWLAWYQQKPGKAPKLLIYAASSLQSGVPSRFSGSGSGTDFTLTISSLQPEDFATYYCQQGNSFPITFGGGTKVEIK	binds	binds
BIIB-9-1272 (antibody, V domains shown, IgG) VH: QVQLVQSGAEVKKPGASVKVSCKASGYTFTSYYMHWVRQAPGQGLEWMGIINPSGGSTSYAQKFQGRVTMTRDTSTSTVYMELSSLRSEDTAVYYCARDTGGYAFDIWGQGTLVTVSS VL: DIQMTQSPSSVSASVGDRVTITCRASQGISSWLAWYQQKPGKAPKLLIYAASSLQSGVPSRFSGSGSGTDFTLTISSLQPEDFATYYCQQASSFPFTFGGGTKVEIK	binds	binds
BIIB-9-1269 (antibody, V domains shown, IgG) VH: QVQLVQSGAEVKKPGASVKVSCKASGYTFTSYYMHWVRQAPGQGLEWMGIINPSGGSTSYAQKFQGRVTMTRDTSTSTVYMELSSLRSEDTAVYYCARDRGQYYHFDLWGRGTLVTVSS VL: DIQMTQSPSSVSASVGDRVAITCRASQGISSWLAWYQQKPGKAPKLLIYAASSLQSGVPSRFSGSGSGTDFTLTISSLQPEDFATYYCQQASSFPFTFGGGTKVEIK	binds	binds
BIIB-9-1267 (antibody, V domains shown, IgG) VH: QVQLVQSGAEVKKPGASVKVSCKASGYTFTSYYMHWVRQAPGQGLEWMGIINPSGGSTSYAQKFQGRVTMTRDTSTSTVYMELSSLRSEDTAVYYCARDHGWAIYGMDVWGQGTTVTVSS VL: not shown	binds	binds
BIIB-9-1268 (antibody, V domains shown, IgG) VH: QVQLVQSGAEVKKPGASVKVSCKASGYTFTSYYMHWVRQAPGQGLEWMGIINPSGGSTSYAQKFQGRVTMTRDTSTSTVYMELSSLRSEDTAVYYCARDPPSWYVFDIWGQGTMVTVSS VL: EIVMTQSPATLSLSPGERATLSCRASQSVSSYLAWYQQKPGQAPRLLIYDASNRATGIPARFSGSGSGTDFTLTISSLEPEDFAVYYCQQATVWPFTFGGGTKVEIK	binds	binds
BIIB-9-1270 (antibody, V domains shown, IgG) VH: QVQLVQSGAEVKKPGASVKVSCKASGYTFTSYYMHWVRQAPGQGLEWMGIINPSGGSTSYAQKFQGRVTMTRDTSTSTVYMELSSLRSEDTAVYYCARDTGGYAFDIWGQGTLVTVSS VL: EIVLTQSPATLSLSPGERATLSCRASQSVSSYLAWYQQKPGQAPRLLIYDASNRATGIPARFSGSGSGTDFTLTISSLEPEDFAVYYCQQSADFPFTFGGGTKVEIK	binds	binds
BIIB-9-1273 (antibody, V domains shown, IgG) VH: QVQLVQSGAEVKKPGASVKVSCKASGYTFTSYYMHWVRQAPGQGLEWMGIINPSGGSTSYAQKFQGRVTMTRDTSTSTVYMELSSLRSEDTAVYYCARDTGGYAFDIWGQGTLVTVSS VL: EIVLTQYPATLSLSPGERATLSCRASQSVSSYLAWYQQKPGQAPRLLIYDASNRATGIPARFSGSGSGTDFTLTISSLEPEDFAVYYCQQSANFPFTFGGGTKVEIK	binds	binds
BIIB-9-1271 (antibody, V domains shown, IgG) VH: QVQLVQSGAEVKKPGASVKVSCKASGYTFTSYYMHWVRQAPGQGLEWMGIINPSGGSTSYAQKFQGRVTMTRDTSTSTVYMELSSLRSEDTAVYYCARDTGGYAFDIWGQGTLVTVSS VL: EIVMTQSPATLSVSPGERATLSCRASQSVSSNLAWYQQKPGQAPRLLIYGASTRATGIPARFSGSGSGTDFTLTISSLQPEDFATYYCQQGFSFPFTFGGGTKVEIK	binds	binds
